Data on two molecules can be found in paper PMC11724288, “Structural and kinetic insights into tRNA promoter engagement by yeast general transcription factor TFIIIC”.

In data set [1] the target is T1, TFIIICΔtail (τ138, τ131, τ95Δtail, τ91, τ60, τ55) (Saccharomyces cerevisiae, UniProt P34111;P33339;P32367;Q06339;Q12308;Q12415 1-1160;1-1025;1-593;1-672;1-588;1-435). The data set is described as follows: filter binding; 150 mM KCl, 4 C, apparent Kd, Hill coefficient 1, N=1; Buffer FB: 20 mM HEPES pH 7.5, 150 mM KCl, 2 mM MgCl2, 5 mM DTT; filter binding 1 h at 4 C; EMSA 20 min RT with 1 ug poly-dI/dC, gel at 4 C; footprint 30 min RT, DNase I 28 C. Particulars: protein: recombinant; copies: 1;1;1;1;1;1; blunt.

In data set [2] the target is T1, TFIIICΔtail (τ138, τ131, τ95Δtail, τ91, …). Description: EMSA; not significantly changed versus A/B; 100-900 nM protein; Buffer FB: 20 mM HEPES pH 7.5, 150 mM KCl, 2 mM MgCl2, 5 mM DTT; filter binding 1 h at 4 C; EMSA 20 min RT with 1 ug poly-dI/dC, gel at 4 C; footprint 30 min RT, DNase I 28 C. Particulars: protein: recombinant; copies: 1;1;1;1;1;1; label: 32P. A general note: Mobility shift assays separate free from complexed probe on a gel.

B1: 85-bp tRNAHis (dsDNA)
DNA 1: TGAAAAGTCGCCATCTTAGTATAGTGGTTAGTACACATCGTTGTGGCCGATGAAACCCTGGTTCGATTCTAGGAGATGGCATTTT
DNA 2: AAAATGCCATCTCCTAGAATCGAACCAGGGTTTCATCGGCCACAACGATGTGTACTAACCACTATACTAAGATGGCGACTTTTCA
In the case of B1, the Kd in data set [1] was 30 ± 1 nM.

B2: mA/B (EMSA) (dsDNA)
DNA 1: TCCATTGAAAAGTCGCCATCTAACTATTGTCGTTAGTACACATCGTTGTGGCCGATGAAACCCTGGTTCGATTCTAGGAGATGGCATTTT
DNA 2: AAAATGCCATCTCCTAGAATCGAACCAGGGTTTCATCGGCCACAACGATGTGTACTAACGACAATAGTTAGATGGCGACTTTTCAATGGA
Turning to B2, in data set [2], the binding result is “binds”.
